“And” between values parts separate entries of the source, which are not always exact repeats. Equal values may be shown once.
Molecular target: T1, wild-type GADD45α (growth arrest- and DNA damage-induced gene 45α), C-terminally myc-tagged (human), P24522
T1 chain: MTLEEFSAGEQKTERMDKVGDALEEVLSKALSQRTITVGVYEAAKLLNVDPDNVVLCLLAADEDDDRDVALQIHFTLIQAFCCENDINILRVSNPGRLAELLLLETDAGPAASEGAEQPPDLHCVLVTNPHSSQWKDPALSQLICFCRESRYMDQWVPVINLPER
Assay: native gel or EMSA
Details: remark: other sources report otherwise

B1: wild-type GADD45α (growth arrest- and DNA damage-induced gene 45α), C-terminally myc-tagged, P24522 1-165 (natural protein)
chain: MTLEEFSAGEQKTERMDKVGDALEEVLSKALSQRTITVGVYEAAKLLNVDPDNVVLCLLAADEDDDRDVALQIHFTLIQAFCCENDINILRVSNPGRLAELLLLETDAGPAASEGAEQPPDLHCVLVTNPHSSQWKDPALSQLICFCRESRYMDQWVPVINLPER
- stoichiometry N: 3 and 4
